# Test results reported in article PMC7717579, “Phosphoregulation of HORMA domain protein HIM-3 promotes asymmetric synaptonemal complex disassembly in meiotic prophase in Caenorhabditis elegans” (PLoS Genetics, 2020).
# Non-standard residues stand in square brackets, D forms with d. No end group written: not given here. pY = N[C@@H](Cc1ccc(OP(=O)(O)O)cc1)C(=O)O
# Target: T1, HTP-2 protein (full length) (C. elegans)
# T1 construct: HTP-2, HORMA domain protein of the meiotic chromosome axis, C. elegans, full length; also called HTP-2 proteins
# Experiment: fluorescence polarisation; 50 nM FITC peptide with various concentrations of HTP-2; 20 mM Tris pH 7.5, 300 mM NaCl, 10% glycerol, 1 mM DTT, 0.1% NP-40; 1 hour at room temperature; 384-well plates; single-site binding model
# Conditions: both partners purified
row,Binder,Kd [µM]
1,"RDSPYGLSQGITKKNKD (also: fluorescein (FITC) conjugated, site not given here) [HIM-3 closure motif peptide, unmodified (wild type), fluorescein-tagged]",5.8
2,"RDSP[pY]GLSQGITKKNKD (also: fluorescein (FITC) conjugated, site not given here) [HIM-3 closure motif peptide phosphorylated at Tyr279, fluorescein-tagged]",16.1
3,"RDSPYGLAQGITKKNKD (also: fluorescein (FITC) conjugated, site not given here) [HIM-3 closure motif peptide with the S282A substitution, fluorescein-tagged]",11.3
